Test results published in patent US20150086555A1.

B1: TCN-564 (5256_A17b) (antibody, V domains shown)
VH: QVQLVQSGADVKKPGSSVTVSCKASGGSFSNYGINWVRQAPGQGLEWMGGIIPLINAPNYAPKFQGRVTITADMFSNIVSLQLTSLRTDDTAVYYCARRKMTTAIDYWGQGTLVTVSS
VL: QPVLSQPPSASASLGASVTLTCTLSSGFDNYQVAWYQQRPGKGPRFVMRVGNGGNVASKGDGIPDRFSVSGSGLNRYLTIKNIQEDDESDYYCGADHGSGNNFVSPYVFGGGTKLTVL
B2: TCN-563 (5237_B21) (antibody, V domains shown)
VH: QVQLAQSGAEVKRPGSSVKVSCTASGGIFRKNAISWVRQAPGQGLEWMGGIIAVFNTANYAQKFQGRVKITADESGNTAYMELSSLRSDDTAVYYCASHPKYFYGSGSYPDFWGQGTLVTVSS
VL: QSALTQPRSVSGSPGQSVTISCTGSSSDVGASNSVSWYQQHPGKAPKLVIYDVTERPSGVPHRFSGSKSGNTASLTVSGLQPEDEADYFCCAYGGKYLVVFGGGTKVTVL
B3: TCN-523 (5248_A17) (antibody, V domains shown)
VH: QVQLVQSGAEVKKPGSSVKVSCKASGGSFSNYAFSWVRQAPGQGLEWMGGTIPLLGTTNYAQKFQGRVTISADQFTSTAYMELGSLRSEDTAVYYCTRRKMTTAFDSWGQGTLVTVSS
VL: QPVLTQPPSASASLGASVTLTCTLSSAYSNYKVDWYQQRPGKGPRFVMRVGTGGIVGSKGDGIPDRFSVLGSGLNRYLTIKNIQEEDESDYHCGADHGSGSNFVSPYVFGGGTKLTVL
B4: TCN-504 (3251_K17) (antibody, V domains shown)
VH: QVQLQESGPGLVKPSETLSLTCAVSGVSISNIDFYWGWIRQPPGKGLEWIGNIYYTGITFYNPSLSSRVAISIDTSKNQFSLTLTSVTAADTAMYYCARHYGDSEAINDAFDIWGQGTMLTVSS
VL: EIVMTQSPATLSVSPGERATLSCRASQSVGNSLAWYQQRPGQAPRLLIYGASTRATGIPPRFSGSGSGTEFTLTISSLQTEDFAVYYCQQYINWRPLSFGGGTKVEIK
B5: TCN-540 (5060_F05) (antibody, V domains shown)
VH: QVQLVQSGGGVVQPGRSLRLSCAASGFTFSSYAMHWVRQAPGKGLEWVAIISYDGNDQYYTDSVKGRFTISRDSSKVYLQMHRLRPEDTAVYYCAKEFETSGYFHGSFDYWGQGILVTVSS
VL: QSALTQPASVSGSPGQSITISCTGTSSDVGGYNYVSWYQQHPGKAPKLLIYEVTNWPSGVSNRFSGSKSGNTASLTISGLQAEDEADYYCSSYAGSSTWVFGGGTRVTVL
B6: TCN-534 (5249_B02) (antibody, V domains shown)
VH: QVQLVQSGAEVKKPGSSVKVSCRESGGTFNGYTITWVRQAPGQGLEWMGGIIPMMGTVNYAQKLQGRVTITTDYFTKTAYMDLNNLRSEDTAMYYCVKIRYTGQQLLWGQGTLVTVSS
VL: DIQMTQSPSTLSASIGDRVTITCRASQSIASWLAWYQQKPGKAPKLLIYEAVNLESGVPSRFSGSGSGTDFTLTISSLQPDDFATYFCQHYGTISQTFGGGTKVEIK
B7: TCN-535 (5246_P19) (antibody, V domains shown)
VH: QVQLVQSGSEVKKPGTSVKVSCTASGSVFTNYGISWVRQAPGQGLEWMGGIIPLFGAAKYAQKFQGRVTITADESTKTVYMELSRLTSKDTAIYFCAKAPRVYEYYFDQWGQGTPVTVSS
VL: EIVLTQSPGTLSLSPGERATLSCRASQSVSSSQLAWYQQKPGQAPRLIIYGASTRATGIPDRFSGSGSGTDFTLTIGRLEPEDFAVFFCQQYSTSPPTFGQGTKVDFK
B8: TCN-530 (5248_H10a) (antibody, V domains shown)
VH: QVQLVQSGAEVRKPGSSVKVSCKASGGPFMSYAIGWVRQAPGQGLEWMGGINPVFGRPHYAQKFQGRVTIATDDSTKTSYMELSSLTSEDTGMYYCASRYSRSSPGTFESWGQGTLVTVSS
VL: EIVMTQFPATLSVSPGERVTLSCRASQSVSNNLAWYQQKPGQPPRLLIYDASTRATGVPAKFSGTGSGTEFTLSISSLQSEDFAVYYCQQYHNWPPSYSFGLGTKLEIK
B9: TCN-531 (5091_H13) (antibody, V domains shown)
VH: EVQLVESGGDLVQPGRSLKLSCTGSGFTFGDYGVTWVRQAPGKGLEWVGFIRTRPWGGTADTAASVKGRFTISRDDSKSLAYLQMNSLKTEDTAVYYCCRDAPPNVEVASMTNWYFDLWGRGTLVTVSS
VL: DIQLTQSPSSLSASVGDRVTITCRASQGILNCLAWYQQKPGKVPNLLMYAASTLQSGVPSRFSGSGFGTDFTLTISSLQPEDVATYYCQTYGGVSTFGGGTKVEIR
B10: TCN-536 (5095_N01) (antibody, V domains shown)
VH: QVQLQQWGAGLLKPSETLSLTCAVYGGSFSVSGYYWSWIRQPPGRGLEWIGEISHGGSTNYNPSLKSRVTISVDTTKNQFSLRLSSVTAADTAVYYCARGTDPDTEVYCRVGNCAAFDYWGQGSLVTVSS
VL: EIILAQSPGTLSLSPGERATLSCRASQFVSTRSLAWYQQRPGQAPRLLIYGASSRATGIPDRFSGSGSGTDFTLTISRLEPEDFAVYYCQHYGYSPRYAFGQGSKVEIK

What follows are binders tested against T1, recombinant soluble homotrimeric HA of A/common magpie/Hong Kong/5052/07 (H5N1) (Influenza A virus A/common magpie/Hong Kong/5052/2007(H5N1)) (assay: not given). Conditions: remark: other sources report otherwise.

Row | Binder | Trimeric HA Binding: RLU [RLU]
1 | B1 | 20800
2 | B2 | 20000

Each binder was assayed against T1, recombinant soluble homotrimeric HA of … (assay: trimeric HA microarray, transfection supernatant set 1). Conditions: remark: other sources report otherwise.

Row | Binder | Trimeric HA Binding: RLU [RLU]
3 | B3 | 6240
4 | B4 | 29700

Each binder was assayed against T1, recombinant soluble homotrimeric HA of … (assay: HA microarray, BCC supernatant). Conditions: remark: other sources report otherwise.

Row | Binder | Trimeric HA Binding: RLU [RLU]
5 | B5 | 113
6 | B6 | 32500
7 | B7 | 45900
8 | B3 | 45800
9 | B8 | 42500
10 | B2 | 27500

These binders were tested against recombinant soluble homotrimeric HA, A/common magpie/Hong Kong/5052/07 H5N1 (Influenza A virus A/common magpie/Hong Kong/5052/2007(H5N1)) (assay: microarray, transfection SN IgG, trimeric HA). Conditions: remark: other sources report otherwise.

Row | Binder | Trimeric HA Binding: RLU [RLU]
11 | B3 | 33900
12 | B4 | 37300

These binders were tested against T1, recombinant soluble homotrimeric HA of … (assay: trimeric HA microarray, transfection supernatant set 3). Conditions: remark: other sources report otherwise.

Row | Binder | Trimeric HA Binding: RLU [RLU]
13 | B9 | 37
14 | B3 | 640
15 | B8 | 5580
16 | B4 | 17800

Each binder was assayed against T1, recombinant soluble homotrimeric HA of … (assay: trimeric HA microarray, transfection supernatant set 2). Conditions: remark: other sources report otherwise.

Row | Binder | Trimeric HA Binding: RLU [RLU]
17 | B3 | 7210
18 | B4 | 16800
19 | B2 | 52800

The binders below were run against recombinant homotrimeric HA A/common magpie/Hong Kong/5052/07 H5N1 (Influenza A virus A/common magpie/Hong Kong/5052/2007(H5N1)) (assay: protein microarray, purified IgG, trimeric HA). Conditions: remark: other sources report otherwise.

Row | Binder | Trimeric HA Binding: RLU [RLU]
20 | B9 | 674
21 | B10 | 794
22 | B5 | 799
23 | B6 | 16500
24 | B7 | 20400
25 | B3 | 20900
26 | B8 | 10300

These binders were tested against T1, recombinant soluble homotrimeric HA of … (assay: HA microarray, control antibody). Conditions: remark: other sources report otherwise.

Row | Binder | Trimeric HA Binding: RLU [RLU]
27 | B4 | 17000

Each binder was assayed against T1, recombinant soluble homotrimeric HA of … (assay: trimeric HA microarray, transfection supernatant set 5). Conditions: remark: other sources report otherwise.

Row | Binder | Trimeric HA Binding: RLU [RLU]
28 | B5 | 1800

These binders were tested against T1, recombinant soluble homotrimeric HA of … (assay: trimeric HA microarray, transfection supernatant set 4). Conditions: remark: other sources report otherwise.

Row | Binder | Trimeric HA Binding: RLU [RLU]
29 | B10 | 27
30 | B6 | 127
31 | B7 | 477
32 | B3 | 2130
33 | B4 | 8680
